These results are taken from US20240010741A1.

The target in one assay is recombinant CD40 protein (UniProt P25942). Kind of assay: CD40L competition ELISA: antibody (5 µg/ml) preincubated with recombinant CD40 (1.7 µg/ml), complex added to coated CD40L, detected with anti-human F(ab)2-peroxidase; a high signal means no competition with CD40L (antibody and CD40L bound to CD40 together).
In a further assay the target is cell-expressed CD40 (UniProt P25942). Kind of assay: cell binding on HEK-Blue-CD40L cells, Alexa-Fluor-488 anti-human IgG, high content imaging.
Chain of cell-expressed CD40 (P25942 21-277 limits assumed): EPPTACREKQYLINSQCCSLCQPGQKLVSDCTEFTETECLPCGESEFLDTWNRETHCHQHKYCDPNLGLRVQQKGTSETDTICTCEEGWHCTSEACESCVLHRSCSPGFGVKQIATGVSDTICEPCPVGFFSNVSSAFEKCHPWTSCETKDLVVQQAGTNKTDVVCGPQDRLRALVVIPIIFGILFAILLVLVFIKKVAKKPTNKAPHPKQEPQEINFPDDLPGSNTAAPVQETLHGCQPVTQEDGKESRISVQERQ

Chain of recombinant CD40 protein (P25942 21-193 limits assumed): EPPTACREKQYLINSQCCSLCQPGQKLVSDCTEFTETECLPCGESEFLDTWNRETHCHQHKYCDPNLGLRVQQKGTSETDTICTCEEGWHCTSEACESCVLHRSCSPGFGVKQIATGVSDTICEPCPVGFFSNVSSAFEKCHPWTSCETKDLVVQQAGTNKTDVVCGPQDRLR

For the substance CP-870,893 IgG1-LALA (antibody), the OD at 450 nm with recombinant CD40 protein turned out to be 2.54 OD. In the assay with cell-expressed CD40, this substance returned a concentration giving a half-maximal response (EC50) of 0.0145 µg/mL.
